Here are results for 14 molecules from paper PMC3176765, “Mechanism of the Interaction between the Intrinsically Disordered C-Terminus of the Pro-Apoptotic ARTS Protein and the Bir3 Domain of XIAP” (PLoS ONE, 2011).

By stoichiometry N is commonly meant a count of units in the complex or per binding partner.

The target of data set [1] is T1, Bir3 subunit of the XIAP (residues 252–350) (Homo sapiens, UniProt P98170).
T1 construct: The pET-21b(+) vector containing XIAP (252–350) Bir3 domain with a C-terminal His Tag; His tag (C); made in house; host or cells: E. coli BL21 Star (DE3)
Put plainly: Fluorescence anisotropy binding of fluorescein-labeled ARTS peptides to Bir3 (1:1 binding model). The conditions noted are these: Bir3 titrated into fluorescein-labeled peptide, 20 mM Hepes pH 7.4, 45 mM NaCl, 10°C, no reducing agent, fit to 1:1 binding model, nb = no binding detected. As to the method:
Fluorescence anisotropy was used to characterize the interaction between ARTS CTD and the Bir3 subunit of XIAP. ARTS CTD (residues 248–274) was synthesized using standard Fmoc chemistry and labeled with fluorescein at its N-terminus. The Bir3 subunit of the XIAP (residues 252–350) was expressed with a His-tag at the C-terminus and purified (see materials and methods and Figure S1). The binding experiments were done in 20 mM Hepes buffer, pH 7.4, 45 mM NaCl, at 10°C. Bir3 was titrated into fl-ARTS CTD and the data were fit to 1∶1 binding model resulting in K d = 8.0±0.7 µM (Figure 4A).
The pET-21b(+) vector containing XIAP (252–350) Bir3 domain with a C-terminal His Tag was transformed into E. coli strain BL21 Star^+ (DE3) (Novagen). Cells were grown at 37°C in LB medium to an optical density (600 nm) of ∼0.6 and induced with 0.4 mM isopropyl-β-D-1-thiogalactoside (IPTG). Cells were harvested after 8 h of incubation at 37°C and were lysed by Microfluidizer (Microfluidics). The protein was purified on HiTrap nickel-Sepharose FF column (100×10 mm, GE Healthcare), using an FPLC system (ÁKTA explorer, Amersham Biosciences). The eluted protein was further purified by filtration on a Sephacryl S100 column (950×26 mm; Amersham Biosciences). The protein was stored in 20 mM Hepes pH 7.4, 50 mM NaCl, 10 mM βME, 0.02% sodium azide and was dialyzed before experimental use.
Measurements were performed at 10°C by using a PerkinElmer LS-50b luminescence spectrofluorimeter equipped with a Hamilton microlabM dispenser as described in [44]. The fluorescently labeled peptide concentrations were determined by using a UV spectrophotometer (Shimadzu, Kyoto, Japan). The fluorescein-labeled ARTS derived peptides were dissolved in 20 mM Hepes buffer, pH 7.4 and 45 mM NaCl. 1 ml of the labeled peptide solution was placed in a cuvette, and the non-labeled Bir3 (200 µl, 150 µM) was placed in the dispenser. Additions of 5 µl were titrated at 90 sec intervals, the solution was stirred for 15 sec, and the fluorescence and anisotropy were measured after each addition by using an excitation wavelength of 480 nm and an emission wavelength of 530 nm. Dissociation constants (K d) were calculated by fitting the fluorescence titration curves (corrected for dilution) or fluorescence anisotropy curves to 1∶1 binding model using KALEIDAGRAPH (Synergy Software, Reading, PA). The following equation was used for the single-site model of the fluorescence results: [drawing 1] Where, F0 is the initial fluorescence, ΔF is the amplitude of the fluorescence change from unbound and bound states, K d is the dissociation constant and [Bir3] is the added concentration of Bir3 domain. A similar equation was used to fit the anisotropy results by replacing the fluorescence (F) with anisotropy (R) changes.

The target in data set [2] is Dimer fl-ARTS 266-274 (human). Put plainly: other fluorescence titration; Bir3 titrated into dimeric fl-ARTS 266-274; fluorescence fit to the Hill equation; apparent averaged Kd; 20 mM Hepes pH 7.4, 45 mM NaCl, 10°C.
Data set [3] addresses T1, Bir3 subunit of the XIAP (residues 252–350). Put plainly: Fluorescence spectroscopy binding of dimeric fl-ARTS 266–274 to Bir3 (Hill equation fit). The conditions noted are these: fluorescence titration with Bir3; 20 mM Hepes pH 7.4, 45 mM NaCl, 10°C; Hill model, apparent averaged Kd; read-out: K d of dimeric peptide, fit to the Hill equation. As to the method: The importance of Cys273 residue for Bir3 binding raised the question of whether disulfide bond formation is involved in the interaction with Bir3. Addition of a reducing agent weakened the interaction between the ARTS derived peptides and Bir3 (Figure 4A). This raised the possibility that a disulfide bond is formed between two ARTS peptide molecules to form an active dimer. To test this, a covalent dimer of ARTS 266–274 was prepared by forming a disulfide bond between the Cys273 residues of two peptide monomers. MS gave a single peak corresponding the mass of the dimer (data not shown). […] Changes in the chemical shift of the sequentially following His274 and preceding Gln272 were also observed. Binding of Bir3 to the dimeric fl-ARTS 266–274 was studied using fluorescence spectroscopy (Fig. 6C). […]
Measurements were performed at 10°C by using a PerkinElmer LS-50b luminescence spectrofluorimeter equipped with a Hamilton microlabM dispenser as described in [44]. The fluorescently labeled peptide concentrations were determined by using a UV spectrophotometer (Shimadzu, Kyoto, Japan). […] Additions of 5 µl were titrated at 90 sec intervals, the solution was stirred for 15 sec, and the fluorescence and anisotropy were measured after each addition by using an excitation wavelength of 480 nm and an emission wavelength of 530 nm. […]

The target of data set [4] is T2, Bir3 domain of XIAP (residues 252-350) with a C-terminal His tag (UniProt P98170 252-350).
T2 construct: Stored with 10 mM beta-mercaptoethanol and dialysed before experimental use; also called Bir3 subunit of XIAP; XIAP (252-350); source: E. coli BL21 Star (DE3), purified (nickel-Sepharose, Sephacryl S100 gel filtration)
Put plainly: fluorescence polarisation; non-labeled Bir3 (200 µl, 150 µM) titrated in 5 µl additions into 1 ml of fluorescein-labeled peptide; 20 mM Hepes pH 7.4, 45 mM NaCl, 10°C; fit to 1:1 binding model. To be noted: both partners purified. (In general: In fluorescence polarisation assays a small probe gives low polarisation when free and higher when bound to something large.)

The target in data set [5] is T2, Bir3 domain of XIAP (residues 252-350) …. The description is as above. The conditions noted are these: both partners purified. This is another data set of the same source.
Data set [6] deals with the molecule itself. Put plainly: SEC; analytical gel filtration of ARTS CTD 248-274 (1-2 mM) without DTT; 20 mM Hepes pH 7.4, 50 mM NaCl, 4°C; peaks identified by mass spectrometry; monomer to dimer.
In data set [7] the target is T2, Bir3 domain of XIAP (residues 252-350) …. Put plainly: NMR titration; TOCSY spectra of free and Bir3-bound ARTS CTD compared; peptide 0.5-1.5 mM, 20 mM deuterated Hepes, 45 mM potassium chloride, pH 6.8, 12°C. To be noted: both partners purified.

Positions of bridges follow the written chain, without caps; N, C: chain ends. Residues, ends and D or L forms follow the SMILES beside them. Chains are numbered I, II in the order given. No end group written: not given here. *: point of attachment. 5FAM = O=C1OC2(c3ccc(O)cc3Oc3cc(O)ccc32)c2ccc(C(=O)*)cc21

T2 sequence (P98170 252-350): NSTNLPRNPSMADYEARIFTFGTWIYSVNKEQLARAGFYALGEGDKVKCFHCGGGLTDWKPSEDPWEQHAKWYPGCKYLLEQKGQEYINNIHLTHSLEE
T1 sequence (P98170 252-350): as above

Take “YGPSLRLLA [fl-ARTS 248–256, fluorescein-labeled peptide of ARTS residues 248–256]”: the “K d (µM), binding affinity to Bir3” value in data set [1] was “nb”; in data set [1] (listed as ARTS 248–256), “did not”.

With “Bir3 domain of XIAP (residues 252-350) with a C-terminal His tag (from UniProt P98170 252-350) (domain or fragment)”, the Kd in data set [2] was 2400 nM.

For the molecule `NC(=O)CC[C@H](NC(=O)CNC(=O)[C@H](CCC(N)=O)NC(=O)[C@H](Cc1c[nH]cn1)NC(=O)[C@H](CCC(=O)O)NC(=O)[C@H](CCC(N)=O)NC(=O)c1ccc2c(c1)C(=O)OC21c2ccc(O)cc2Oc2cc(O)ccc21)C(=O)NCC(=O)N[C@@H](CSSC[C@H](NC(=O)CNC(=O)[C@H](CCC(N)=O)NC(=O)CNC(=O)[C@H](CCC(N)=O)NC(=O)[C@H](Cc1c[nH]cn1)NC(=O)[C@H](CCC(=O)O)NC(=O)[C@H](CCC(N)=O)NC(=O)c1ccc2c(c1)C(=O)OC21c2ccc(O)cc2Oc2cc(O)ccc21)C(=O)N[C@@H](Cc1c[nH]cn1)C(=O)O)C(=O)N[C@@H](Cc1c[nH]cn1)C(=O)O` [Dimer fl-ARTS 266–274] (I: 5FAM-QEHQGQGCH-OH / II: 5FAM-QEHQGQGCH-OH; disulfide I:8-II:8), the Kd in data set [3] amounted to 2400 ± 100 nM.

In the case of “QEAQGQGCH [fl-ARTS 266–274 H268A, alanine-scan analogue of fl-ARTS 266–274]”, the “K d (µM), binding affinity to Bir3” value is on record as “nb” in data set [1] and “did not bind” in data set [1] (listed as ARTS 266–274 H268A).

Take “QEHQGQGAH [fl-ARTS 266–274 C273A, alanine-scan analogue of fl-ARTS 266–274]”: the results for the “K d (µM), binding affinity to Bir3” value in data set [1] and in data set [1] (listed as Cys273A) were “nb” and “did not bind”, respectively.

In the case of “PPGAVKGTG [fl-ARTS 257–265, fluorescein-labeled peptide of ARTS residues 257–265]”, the “K d (µM), binding affinity to Bir3” value in data set [1] was “nb”; in data set [1] (listed as ARTS 257–265) it was “did not”.

B1: fl-ARTS 266-274 (peptide)
peptide: {5'/6'‑carboxyfluorescein}-QEHQGQGCH
notes: numbers count on: ARTS/Sept4_i2 (GenBank AAG45673.1); also called ARTS 266-274 monomer; source: synthetic peptide
As for B1, the Kd was 2500 ± 300 nM in data set [4] and 2900 ± 300 nM in data set [5].

B2: fl-ARTS 248-274 (peptide)
peptide: {5(6)‑carboxyfluorescein}-YGPSLRLLAPPGAVKGTGQEHQGQGCH
notes: numbers count on: ARTS/Sept4_i2 (GenBank AAG45673.1); also called fl-ARTS CTD; fluorescein-labeled ARTS CTD 248-274; source: synthetic peptide
B2 displayed a Kd in data set [4] of 8000 ± 700 nM.

B3: fl-ARTS 266-274 Q266A (peptide)
peptide: {5'/6'‑carboxyfluorescein}-AEHQGQGCH
notes: numbers count on: ARTS/Sept4_i2 (GenBank AAG45673.1); source: synthetic peptide
Molecule B3 displayed a Kd in data set [4] of 900 ± 100 nM.

B4: fl-ARTS 266-274 H274A (peptide)
peptide: {5'/6'‑carboxyfluorescein}-QEHQGQGCA
notes: as for B3
Molecule B4 yielded a Kd in data set [4] of 800 ± 300 nM.

B5: ARTS CTD 248-274 (not labelled) (peptide)
peptide: YGPSLRLLAPPGAVKGTGQEHQGQGCH
notes: numbers count on: ARTS/Sept4_i2 (GenBank AAG45673.1); also called ARTS C-terminal domain; source: synthetic peptide
In the case of B5, in data set [6], the “stoichiometry N” value turned out to be 2. For the same molecule, the binding result in data set [7] is given as “binds”.

B6: fl-ARTS 266-274 Q269A (peptide)
peptide: {5'/6'‑carboxyfluorescein}-QEHAGQGCH
notes: as for B3
B6 gave a Kd in data set [4] of 1000 ± 300 nM.

B7: fl-ARTS 266-274 Q271A (peptide)
peptide: {5'/6'‑carboxyfluorescein}-QEHQGAGCH
notes: as for B3
For B7, in data set [4], the Kd is 1300 ± 200 nM.

B8: fl-ARTS 266-274 E267A (peptide)
peptide: {5'/6'‑carboxyfluorescein}-QAHQGQGCH
notes: as for B3
In turn, B8 came in with a Kd in data set [4] of 3600 ± 800 nM.
